{"source": "patent US20260218174", "assay_in_all_cases": "cleavage_in_vitro", "key": {"[1]": {"tested_on": "OMNI-XL-12 (unidentified metagenomic bacterium)", "sequence (chain, as listed by the source)": "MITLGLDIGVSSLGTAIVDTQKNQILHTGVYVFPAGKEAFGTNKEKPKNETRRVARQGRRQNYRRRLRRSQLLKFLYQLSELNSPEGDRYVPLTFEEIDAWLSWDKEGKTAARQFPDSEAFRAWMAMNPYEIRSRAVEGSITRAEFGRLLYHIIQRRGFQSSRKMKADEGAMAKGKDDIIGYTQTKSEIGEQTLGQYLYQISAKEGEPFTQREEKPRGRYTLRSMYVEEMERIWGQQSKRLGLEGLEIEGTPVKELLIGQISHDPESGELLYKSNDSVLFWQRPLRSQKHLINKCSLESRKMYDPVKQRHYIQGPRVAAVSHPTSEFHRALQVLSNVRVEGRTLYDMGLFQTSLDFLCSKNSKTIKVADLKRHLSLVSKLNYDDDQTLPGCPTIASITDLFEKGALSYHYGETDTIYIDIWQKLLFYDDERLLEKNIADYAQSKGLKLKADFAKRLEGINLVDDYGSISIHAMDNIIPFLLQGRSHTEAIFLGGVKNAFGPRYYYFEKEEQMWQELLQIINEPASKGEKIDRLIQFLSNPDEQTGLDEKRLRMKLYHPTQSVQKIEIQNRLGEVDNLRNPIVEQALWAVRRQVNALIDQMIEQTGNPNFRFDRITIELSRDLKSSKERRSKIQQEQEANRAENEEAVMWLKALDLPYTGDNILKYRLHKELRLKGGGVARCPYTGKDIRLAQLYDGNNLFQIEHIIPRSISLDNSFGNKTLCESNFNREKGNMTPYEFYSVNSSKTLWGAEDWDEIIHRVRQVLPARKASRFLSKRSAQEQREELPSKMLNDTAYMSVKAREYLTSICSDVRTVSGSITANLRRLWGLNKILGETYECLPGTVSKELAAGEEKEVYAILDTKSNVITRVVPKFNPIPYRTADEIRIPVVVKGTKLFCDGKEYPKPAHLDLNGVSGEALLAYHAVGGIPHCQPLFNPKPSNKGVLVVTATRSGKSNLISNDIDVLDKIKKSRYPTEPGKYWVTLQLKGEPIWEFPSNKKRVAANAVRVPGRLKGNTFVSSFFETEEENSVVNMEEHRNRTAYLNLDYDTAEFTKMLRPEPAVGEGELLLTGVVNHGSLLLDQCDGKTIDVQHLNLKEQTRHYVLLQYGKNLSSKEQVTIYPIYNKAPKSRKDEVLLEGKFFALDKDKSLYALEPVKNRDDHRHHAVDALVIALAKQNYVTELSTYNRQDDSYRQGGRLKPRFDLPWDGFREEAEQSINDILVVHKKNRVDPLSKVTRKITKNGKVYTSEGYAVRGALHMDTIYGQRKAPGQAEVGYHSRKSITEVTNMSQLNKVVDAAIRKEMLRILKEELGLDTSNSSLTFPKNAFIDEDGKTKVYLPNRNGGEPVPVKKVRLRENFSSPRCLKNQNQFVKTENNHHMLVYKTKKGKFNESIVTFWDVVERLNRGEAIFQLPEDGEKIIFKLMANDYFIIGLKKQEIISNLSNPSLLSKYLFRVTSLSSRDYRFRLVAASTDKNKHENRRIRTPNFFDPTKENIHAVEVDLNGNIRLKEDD", "conditions": "TXTL; PAM relaxed NRNNCCNN, strict NRTNCCRN"}, "[2]": {"tested_on": "OMNI-XL-19 (unidentified metagenomic bacterium)", "conditions": "TXTL; PAM NRGNRCNN"}, "[3]": {"tested_on": "OMNI-XL-18 (unidentified metagenomic bacterium)", "sequence (chain, as listed by the source)": "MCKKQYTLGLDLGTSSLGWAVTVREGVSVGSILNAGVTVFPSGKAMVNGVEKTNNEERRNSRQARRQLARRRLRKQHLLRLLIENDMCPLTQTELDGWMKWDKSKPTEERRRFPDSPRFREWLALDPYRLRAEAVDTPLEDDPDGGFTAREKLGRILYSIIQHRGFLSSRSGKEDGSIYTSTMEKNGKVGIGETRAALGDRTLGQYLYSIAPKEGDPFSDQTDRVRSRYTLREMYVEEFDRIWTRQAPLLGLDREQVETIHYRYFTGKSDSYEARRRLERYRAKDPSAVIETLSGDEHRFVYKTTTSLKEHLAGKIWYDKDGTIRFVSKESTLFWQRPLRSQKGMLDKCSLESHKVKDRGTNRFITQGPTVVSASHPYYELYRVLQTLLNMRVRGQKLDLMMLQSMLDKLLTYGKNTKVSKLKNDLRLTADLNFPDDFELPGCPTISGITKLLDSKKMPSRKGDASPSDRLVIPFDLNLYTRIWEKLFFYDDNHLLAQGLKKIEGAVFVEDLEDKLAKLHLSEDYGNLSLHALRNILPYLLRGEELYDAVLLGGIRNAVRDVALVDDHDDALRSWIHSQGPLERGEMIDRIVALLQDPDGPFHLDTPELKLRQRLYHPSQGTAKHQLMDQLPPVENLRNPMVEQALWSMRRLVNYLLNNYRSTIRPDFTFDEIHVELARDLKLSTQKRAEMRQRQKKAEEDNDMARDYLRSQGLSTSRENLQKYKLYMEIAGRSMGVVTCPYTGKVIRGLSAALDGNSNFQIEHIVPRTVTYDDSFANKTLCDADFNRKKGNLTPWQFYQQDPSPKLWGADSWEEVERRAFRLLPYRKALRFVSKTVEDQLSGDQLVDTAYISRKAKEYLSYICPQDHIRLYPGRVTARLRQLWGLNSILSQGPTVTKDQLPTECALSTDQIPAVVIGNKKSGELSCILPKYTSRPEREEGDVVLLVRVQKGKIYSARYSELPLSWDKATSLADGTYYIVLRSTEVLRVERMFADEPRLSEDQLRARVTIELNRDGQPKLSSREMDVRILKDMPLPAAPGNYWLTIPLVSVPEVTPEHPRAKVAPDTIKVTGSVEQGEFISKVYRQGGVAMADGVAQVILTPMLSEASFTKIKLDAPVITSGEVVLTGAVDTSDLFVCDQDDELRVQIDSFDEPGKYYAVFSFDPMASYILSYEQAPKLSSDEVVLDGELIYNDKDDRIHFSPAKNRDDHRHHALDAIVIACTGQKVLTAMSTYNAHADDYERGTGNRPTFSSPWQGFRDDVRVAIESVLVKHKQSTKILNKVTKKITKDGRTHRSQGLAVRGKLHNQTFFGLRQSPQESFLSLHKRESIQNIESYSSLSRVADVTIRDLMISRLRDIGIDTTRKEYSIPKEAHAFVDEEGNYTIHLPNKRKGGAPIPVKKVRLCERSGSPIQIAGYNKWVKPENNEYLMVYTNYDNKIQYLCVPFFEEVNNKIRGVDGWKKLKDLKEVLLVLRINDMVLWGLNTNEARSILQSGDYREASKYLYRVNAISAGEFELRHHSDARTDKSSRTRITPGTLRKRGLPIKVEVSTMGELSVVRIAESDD", "conditions": "TXTL; PAM NGYCCNNN"}, "[4]": {"tested_on": "OMNI-XL-16 (unidentified metagenomic bacterium)", "sequence (chain, as listed by the source)": "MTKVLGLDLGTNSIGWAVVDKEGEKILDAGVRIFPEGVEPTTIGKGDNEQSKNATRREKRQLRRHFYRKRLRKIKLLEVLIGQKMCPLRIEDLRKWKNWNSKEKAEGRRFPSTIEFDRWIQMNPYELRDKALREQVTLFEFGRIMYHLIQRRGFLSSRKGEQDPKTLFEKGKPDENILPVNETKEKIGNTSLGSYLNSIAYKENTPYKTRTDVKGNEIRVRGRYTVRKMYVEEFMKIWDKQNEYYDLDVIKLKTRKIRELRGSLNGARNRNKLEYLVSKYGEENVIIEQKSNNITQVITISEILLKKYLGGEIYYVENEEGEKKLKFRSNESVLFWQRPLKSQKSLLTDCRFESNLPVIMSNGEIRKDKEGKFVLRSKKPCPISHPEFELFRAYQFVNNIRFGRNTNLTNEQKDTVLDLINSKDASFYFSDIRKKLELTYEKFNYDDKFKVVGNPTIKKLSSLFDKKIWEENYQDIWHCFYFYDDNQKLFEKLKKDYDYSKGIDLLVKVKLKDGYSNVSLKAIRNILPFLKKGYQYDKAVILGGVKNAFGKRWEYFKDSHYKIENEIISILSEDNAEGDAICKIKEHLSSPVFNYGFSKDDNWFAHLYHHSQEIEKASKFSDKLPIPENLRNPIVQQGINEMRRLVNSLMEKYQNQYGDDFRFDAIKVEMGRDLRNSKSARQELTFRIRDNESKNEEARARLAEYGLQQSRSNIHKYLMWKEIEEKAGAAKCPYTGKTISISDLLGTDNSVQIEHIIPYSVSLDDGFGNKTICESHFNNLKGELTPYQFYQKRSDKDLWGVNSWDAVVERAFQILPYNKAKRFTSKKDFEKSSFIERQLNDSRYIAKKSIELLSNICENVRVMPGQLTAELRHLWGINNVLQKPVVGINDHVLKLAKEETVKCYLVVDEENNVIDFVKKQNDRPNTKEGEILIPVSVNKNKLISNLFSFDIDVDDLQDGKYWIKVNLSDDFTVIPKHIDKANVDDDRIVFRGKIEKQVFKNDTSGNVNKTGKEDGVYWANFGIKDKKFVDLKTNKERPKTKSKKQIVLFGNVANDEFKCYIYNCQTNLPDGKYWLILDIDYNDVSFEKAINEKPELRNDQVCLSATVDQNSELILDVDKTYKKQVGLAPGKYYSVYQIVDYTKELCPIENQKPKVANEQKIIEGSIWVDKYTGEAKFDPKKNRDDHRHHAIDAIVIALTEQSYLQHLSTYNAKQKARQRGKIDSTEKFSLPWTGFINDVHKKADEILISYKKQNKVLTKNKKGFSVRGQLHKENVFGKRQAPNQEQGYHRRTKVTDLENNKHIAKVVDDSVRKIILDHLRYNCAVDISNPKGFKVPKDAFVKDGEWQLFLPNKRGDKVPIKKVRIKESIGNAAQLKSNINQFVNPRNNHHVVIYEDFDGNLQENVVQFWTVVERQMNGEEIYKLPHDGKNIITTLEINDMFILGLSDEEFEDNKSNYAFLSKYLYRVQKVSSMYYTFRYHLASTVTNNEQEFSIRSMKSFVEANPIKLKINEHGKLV", "conditions": "TXTL; PAM NARNACVN"}}}
{"sequence": "GGAAGAGCAGAGCCUUGGUCUCGUUGUGGAUUGAUUACUUUGAAAAAAGUAAUCUUUUCAUAACAAGGCUAUAUGCCGAAGUUAUUACGGCUCCACUUCGGUGGAGCCUUUUUU / GGAAGAGCAGAGCCTTGGTCTCNNNNNNNN / NNNNNNNNGAGACCAAGGCTCTGCTCTTCC [OMNI-XL-12 sgRNA V1 T2 ; T2 protospacer 8N PAM library]", "values": [{"measurement": "activity (1-depletion score)", "setting": "[1]", "result": 0.98}]}
{"sequence": "GGAAGAGCAGAGCCUUGGUCUCGUUGUGGAUUGAUCAGUUUGAAAAAACGAUCUUUUCACAACAAGGCUAUAUGCCGUAGUUGAUUCUACGCUCCCGCUUCGGCGGGAGCUUUUUUUU / GGAAGAGCAGAGCCTTGGTCTCNNNNNNNN / NNNNNNNNGAGACCAAGGCTCTGCTCTTCC [OMNI-XL-19 sgRNA V1 T2 ; T2 protospacer 8N PAM library]", "values": [{"measurement": "activity (1-depletion score)", "setting": "[2]", "result": 0.94}]}
{"sequence": "GGAAGAGCAGAGCCUUGGUCUCGUUGUGGAUUGAUCAGUUUGAAAAAACGAUCUCUUCACAACAAGGCUAUAUGCCGUAGUUGAUUCUACGCUCCCGCUUCGGCGGGAGCUUUUUUU / GGAAGAGCAGAGCCTTGGTCTCNNNNNNNN / NNNNNNNNGAGACCAAGGCTCTGCTCTTCC [OMNI-XL-18 sgRNA V2 T2 ; T2 protospacer 8N PAM library]", "values": [{"measurement": "activity (1-depletion score)", "setting": "[3]", "result": 0.98}]}
{"sequence": "GGAAGAGCAGAGCCUUGGUCUCGUUGUGGAUUGAUUACUUUGAAAAAAGUAAUCUCUUCAUAACAAGGCUAUAUGCCGAAGUUAUUACGGCUCCACUUCGGUGGAGCCUUUUUU / GGAAGAGCAGAGCCTTGGTCTCNNNNNNNN / NNNNNNNNGAGACCAAGGCTCTGCTCTTCC [OMNI-XL-12 sgRNA V2 T2 ; T2 protospacer 8N PAM library]", "values": [{"measurement": "activity (1-depletion score)", "setting": "[1]", "result": 0.97}]}
{"sequence": "GGAAGAGCAGAGCCUUGGUCUCGUUGUGGAUUGAUCAGUUUGAAAAAACGAUCUUUUCACAACAAGGCUAUAUGCCGUAGUUGAUUCUACGCUCCCGCUUCGGCGGGAGCUUUUUUU / GGAAGAGCAGAGCCTTGGTCTCNNNNNNNN / NNNNNNNNGAGACCAAGGCTCTGCTCTTCC [OMNI-XL-18 sgRNA V1 T2 ; T2 protospacer 8N PAM library]", "values": [{"measurement": "activity (1-depletion score)", "setting": "[3]", "result": 0.97}]}
{"sequence": "GGAAGAGCAGAGCCUUGGUCUCGUUGUGGUUUGAUGUAAUUGAAAAAAUUACAUCUUAUCACAAUAAGGCUAUAUGCCGAAGGAUAAAAUGUCCUAUACUCCUGCUUCGGUAGGAGUUUUUUU / GGAAGAGCAGAGCCTTGGTCTCNNNNNNNN / NNNNNNNNGAGACCAAGGCTCTGCTCTTCC [OMNI-XL-16 sgRNA V1 T2 ; T2 protospacer 8N PAM library]", "values": [{"measurement": "activity (1-depletion score)", "setting": "[4]", "result": 0.64}]}
